Blank lines part the entries; values can stand above or below the molecule they belong to.
Assays:
[1] = target: HLA-DR; experiment: flow cytometry, staining of an EBV cell line (internal control)
[2] = target: MHC class I; experiment: as above
[3] = target: T1, HLA-DRB1*1501 (human); experiment: not specified ('The methods described above')
T1 construct: whole, on cells; On Me 290 cells in the ELISPOT assay

[4] = target: T2, HLA-DRB5*0101 (human); experiment: not specified ('The methods described above')
T2 construct: whole, on cells; On Me 290 cells in the ELISPOT assay

[5] = target: T3, HLA-DRB1*1101 (human); experiment: not specified ('The methods described above')
T3 construct: whole, on cells; On antigen presenting cells in the ELISPOT assays

[6] = target: T4, HLA-DRB1*0101 (human); experiment: not specified ('The methods described above')
T4 construct: Only the beta allele is printed

[7] = target: HLA-DRB1*0301 (human); experiment: cell-based or functional assay
[8] = target: T5, HLA-DRB1*0301 (human); experiment: not specified ('The methods described above')
T5 construct: whole, on cells; also called DR3; HLA-DR3

[9] = target: T6, HLA-DRB1*0701 (human); experiment: not specified ('The methods described above')
T6 construct: whole, on cells; On LCL 40 or homozygous EBV line BH in the T cell assays

Molecule: anti-HLA-DR antibody clone L243
MFI [1]: 787 MFI

Molecule: WEKMKASEKIFIVYM [SSX-5 37-51 peptide]
cross-recognition by SSX-2 specific, DR3 restricted CD4+ T cells, peptide titration, IFN-gamma ELISA; efficiency against SSX-2 37-51 [7]: ~3 fold less efficiently

Molecule: WEKMKSSEKIVYVYM [SSX-4 37-51 peptide]
cross-recognition by SSX-2 specific, DR3 restricted CD4+ T cells, peptide titration, IFN-gamma ELISA; efficiency against SSX-2 37-51 [7]: ~10 fold less efficiently

Further lines, results first:

MFI [2]: 271 MFI
Molecule: anti-pan MHC-I antibody clone W6/32

binding result [3]: binds
binding result [4]: binds
binding result [5]: binds
binding result [6]: binds
B1: SSX-2 peptide p98-112 (peptide)
peptide: QMTFGRLQGISPKIM
notes: also called p98-111 (as printed once); SSX-2 98-112

binding result [8]: binds
binding result [9]: binds
Molecule: FGRLQGISPKIMPKK [SSX-2 peptide p101-115]

Source: US20110293648A1 (LUDWIG INSTITUTE FOR CANCER RESEARCH, published 2011)
